Assay results: PMC5766252, “Indole-3-acetaldehyde dehydrogenase-dependent auxin synthesis contributes to virulence of Pseudomonas syringae strain DC3000” (PLoS Pathogens, 2018)

How the values were obtained:
[1] = tested on: NC(=O)c1ccc[n+]([C@@H]2O[C@H](COP(=O)(O)OP(=O)(O)OC[C@H]3O[C@@H](n4cnc5c(N)ncnc54)[C@H](O)[C@@H]3O)[C@@H](O)[C@H]2O)c1; assay: purified protein; details: 1.0 mM IAAld, 100 mM Tris-HCl pH 8.0, 100 mM KCl, 25 °C, NAD+ varied, varied: cofactor
O=CCc1c[nH]c2ccccc12 = assay: purified protein; details: 1.0 mM NAD+, 100 mM Tris-HCl pH 8.0, 100 mM KCl, 25 °C, IAAld varied 0.05-2.5 mM
[2] = molecular target: Aldehyde dehydrogenase AldC (PSPTO_3644) (Pseudomonas syringae pv. tomato strain DC3000); assay: SEC; His-tagged protein on a Superdex-200 26/60 column in 25 mM Hepes (pH 7.5), 100 mM NaCl; column calibrated with molecular weight standards
AldA = molecular target: T1, AldA (Pseudomonas syringae group genomosp. 3, UniProt Q88BC5); assay: X-ray crystal structure of complex; type: binding; details: pH 8.5
T1 construct: gene PSPTO_0092; full-length, N-terminal hexahistidine tag (pET28a, NdeI/XhoI), E. coli BL21(DE3); tetramer; catalytic Cys302

[3] = tested on: NC(=O)c1ccc[n+]([C@@H]2O[C@H](COP(=O)(O)OP(=O)(O)OC[C@H]3O[C@@H](n4cnc5c(N)ncnc54)[C@H](OP(=O)(O)O)[C@@H]3O)[C@@H](O)[C@H]2O)c1; assay: purified protein; details: 1.0 mM IAAld, 100 mM Tris-HCl pH 8.0, 100 mM KCl, 25 °C, NADP+ varied, varied: cofactor
[4] = molecular target: Aldehyde dehydrogenase AldB (PSPTO_2673) (Pseudomonas syringae pv. tomato strain DC3000); assay: SEC; His-tagged protein on a Superdex-200 26/60 column in 25 mM Hepes (pH 7.5), 100 mM NaCl; column calibrated with molecular weight standards
[5] = molecular target: the molecule itself; assay: as above

Molecule | Km [1] | kcat [1] | kcat/Km [1] | Km (O=CCc1c[nH]c2ccccc12) | kcat (O=CCc1c[nH]c2ccccc12) | kcat/Km (O=CCc1c[nH]c2ccccc12) | other results
AldC (Pseudomonas syringae pv. tomato str. DC3000) | 445 ± 99 µM | 0.00667 ± 0.000167 s⁻¹ | 14 M⁻¹ s⁻¹ | 1,280 ± 161 µM | 0.06 ± 0.00333 s⁻¹ | 46 M⁻¹ s⁻¹ | –
Aldehyde dehydrogenase AldC (PSPTO_3644) (enzyme) | – | – | – | – | – | – | stoichiometry N [2]: 2
NC(=O)c1ccc[n+]([C@@H]2O[C@H](COP(=O)(O)OP(=O)(O)OC[C@H]3O[C@@H](n4cnc5c(N)ncnc54)[C@H](O)[C@@H]3O)[C@@H](O)[C@H]2O)c1 [NAD^+] | – | – | – | – | – | – | X-ray crystal structure of complex (AldA; 5 mM NAD+, cofactor binding site, also in the ternary complex 5IUW): AldA (5IUU); AldA•NAD^+ (5IUV); and AldA•NAD^+•IAA (5IUW)
O=C(O)Cc1c[nH]c2ccccc12 [IAA] | – | – | – | – | – | – | X-ray crystal structure of complex (AldA; 5 mM NAD+ and 5 mM IAA, dead-end ternary complex, 1.93 Å, substrate site near Cys302): AldA (5IUU); AldA•NAD^+ (5IUV); and AldA•NAD^+•IAA (5IUW)
AldB (Pseudomonas syringae pv. tomato str. DC3000) | 33.4 ± 9.2 µM | 0.035 ± 0.00167 s⁻¹ | 1040 M⁻¹ s⁻¹ | 595 ± 39 µM | 0.145 ± 0.00333 s⁻¹ | 244 M⁻¹ s⁻¹ | –
AldA (Pseudomonas syringae pv. tomato str. DC3000) | 42 ± 8 µM | 3.23 ± 0.15 s⁻¹ | 77400 M⁻¹ s⁻¹ | 119 ± 37 µM | 3.9 ± 0.35 s⁻¹ | 32800 M⁻¹ s⁻¹ | Km [3]: 1,960 ± 182 µM; kcat [3]: 0.5 ± 0.0167 s⁻¹; kcat/Km [3]: 252 M⁻¹ s⁻¹
Aldehyde dehydrogenase AldB (PSPTO_2673) (enzyme) | – | – | – | – | – | – | stoichiometry N [4]: 4
Indole-3-acetaldehyde dehydrogenase AldA (PSPTO_0092) (enzyme, AldA (PSPTO_0092), aldehyde dehydrogenase of Pseudomonas syringae pv. tomato strain DC3000; estimated Mr 52.7 kDa without the tag; The full-length CDS is stated for the pET21a-0092 construct; pET28a-AldA was made with the same NdeI and XhoI sites; also called IAAld dehydrogenase; source: E. coli BL21 (DE3), pET28a-AldA, purified (Ni-NTA, Superdex-200 size exclusion); not shown: His6, N-terminal, …) MTTLTRADWEQRAQNLKIEGRAFIQGEYTAAASGETFDCISPVDGRLLAKVASCDAADAQRAVESARSAFDSGAWSRLAPAKRKATMIRFAGLLEQNAEELALLETLDMGKPISDSLGVDIPGGARALSWSGEAIDKLYDEVAATPHDQLGLVTREPVGVVAAIVPWNFPLMMACWKLGPALSTGNSVVLKPSEKSPLTAIRIAQLAIEAGIPAGVLNVLPGYGHTVGKALALHMDVDTVVFTGSTKIAKQLMIYAGESNMKRVWLEAGGKSPNIVFADAPDLQAAADSAASAIAFNQGEVCTAGSRLLVERSIKDRFLPMVIEALGTWKPGNPLDPATNVGALVDTQQMNTVLSYIAAGHTDGARLVAGGKQILQETGGTYVEPTIFDGVNNAMRIAQEEIFGPVLSVLTFDTAEEAIQIANDTPYGLAAAVWTANLSKAHLTARALRAGSVWVNQYDGGDMTAPFGGFKQSGNGRDKSLHAFDKYTELKSTWIKL | – | – | – | – | – | – | stoichiometry N [5]: 4
